In a protein production outcome set (Wang et al. 2014):

Assay: label from the status in PepcDB records
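Further: failed if final PepcDB status was selected cloned or expressed and not failed if soluble or beyond.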

Row | Sequence | protein production
1 | MNAPLLTQDTKRTLAWIAVAVAFLALLKLLAPTLTPFVFAGILSYILHPGVEWLQRHRVPRVLGVFLMILLLTVVAVALMLLILAVLQREIPAIREQLPGMLSKLNAAVTPRLAEMGVHVRFDFPGLRKLLTEQLAASPEDVMSTALNYLRVSGSAAVQVLGIVFLVPIVMFYLLMDWNMLIRRLEGAVPRRWISKTRELAAETDGLLSQYLRGQIIVMLVLAAYYSAGLALAGFDVALPIGIFTGLAVFIPYIGFGIGLILAILSALLQFGNLYGLLAVAVVYGVGQVLEGFYLTPRLVGERIGLHPLAVILALLAFGQLFGFFGILLALPISAVLLVGLRQIRQLYLGSKLYRD | failed
2 | MNAVGLVAFATVGSLKAIDADFDVLGVAVLGVLTALGGGATRDVLVGSVPAMLQSTTDVGFALAGVVVAVVVARRVGTEVLAHPVVDVPDAVGLAAFAASGALVGVGADVSPFGVVVLGTTTGVGGGLVSDVLLQRVPFVLTEDLYATCAIAGSTVLWVATASGLGATIAAAAGAGVTLAVRLLAIRFEWALPTVRLNAPA | failed
3 | MNAVHFGAGNIGRGFIGEILAKNGFHITFVDVNETIIQALKERKSYTIELADASHQQINVENVTGLNNMTEPEKVVEAIAEADLVTTAIGPNILPRIAELIAQGIDARAEANCQKPLDIIACENMIGGSTFLAEEVAKYLKNPAYAEQWIGFPDAAVDRIVPLQKHEDPLFVQVEPFCEWVIDDTNRKAKEIQLEGVHYVADLEPYIERKLFSVNTGHATVAYTGALLGYQTIDEAMQDALVVAQLKSVLQETGKLLVAKWNFDEQEHAAYIEKIIQRFQNKYISDAITRVARTPIRKLGAQERFIRPIRELQERNLVSPHLLAMIGIVFNYHDPEDEQSRQLQEMLDQESVDTVIAEVTGIEDPETVKNIKQNVERYARPQVA | failed
4 | MNCAISGEVPVEPVVSTKSGLLFERRLIERHISDYGKCPVTGEPLTIDDIVPIKTGEIIKPKTLHTASIPGLLGTFQNEWDGLMLSNFALEQQLHTARQELSHALYQHDSACRVIARLKKERDEARQLLAEVERHIPAAPEAVTANAALSNGKRAAVDEELGPDAKKLCPGISAEIITELTDCNAALSQKRKKRQIPQTLASIDTLERFTQLSSHPLHKTNKPGICSMDILHSKDVIATGGVDATAVLFDRPSGQILSTLTGHSKKVTSVKFVGDSDLVLTASADKTVRIWRNPGDGNYACGYTLNDHSAEVRAVTVHPTNKYFVSASLDGTWCFYDLSSGSCLAQVSDDSKNVDYTAAAFHPDGLILGTGTSQSVVKIWDVKSQANVAKFDGHTGEVTAISFSENGYFLATAAEDGVRLWDLRKLRNFKSFLSADANSVEFDPSGSYLGIAASDIKVYQTASVKAEWNLIKTLPDLSGTGKATCVKFGSDAQYVAVGSMDRNYGYLVFLVMKKPTSMMTLRKTREQSVKNSDRTFQMSISSVISLKFLKFCCILQYLQQWGRIS | failed
5 | MNDFSCPAIAFPSFLNPVIVHLGPIALYWYGLGYVVGILFVWWYAQKLLKKQSLWYANHPPMDKEKIGDFVVWSAISIVVGGRLGQVLVWDPIYYFSHPTAIITIWNGGMSFHGGLIGITIAMIWFARKNNIKIRAMFDIIAIGAPIGIGIVRICNFINQELWGNVTTHPWAVCFPLDPYYLPRHPSQLYEALMEGFLLFVILFILTFAFKALKRPGTVSGIFIIGYAIARSISEIYRAPQEDPEWFSTLFHSTGFTYGMALSLPMLFLGFYLLFQAFKDESTKNGHTQTKN | failed
6 | MNDFSLELPVRTNKPRETGQSILIDNGYPLQFFKDAIAGASDYIDFVKFGWGTSLLTKDLEEKISTLKEHDITFFFGGTLFEKYVSQKKVNEFHRYCTYFGCEYIEISNGTLPMTNKEKAAYIADFSDEFLVLSEVGSKDAELASRQSSEEWLEYIVEDMEAGAEKVITEARESGTGGICSSSGDVRFQIVDDIISSDIDINRLIFEAPNKTLQQGFIQKIGPNVNLANIPFHDAIALETLRLGLRSDTFFL | not failed
7 | MNDIAREPVLGGAPAPAVPQPLRVRFCGSGSEYFRIWIVNLLLTIVTLGIYSAWAKVRTLQYFYRNTQLGGASFDYHGSPTAILKGRAIIFVLALAFNLSGQVSPVLTLLLLAAIGLVFPWLLVRSLRFRMANSSYRGLRFAFTGKDAQAYKVFLLWPVLTVFTFNLLAPFAHQRFKQYQHRNTRFGTTSFDFSATAGQFYGVYLRTFGMAILAVMAVGVVVVLAGVSAAAGAASGGRAIAVSLMVLAMYAAMLFLGPYFLARLQNVVWNHTTLGAHRFQSQVSAGKLFWIFISNAALLIVTLGLFTPFARVRSARYKLESVTMLAAGSLDTFVAGESTRVGALGDAAVDWYDIDIAL | failed
8 | MNDITIIGASQNNLKNINITIPKHLVTVFTGRSGSGKSSLVFRTIAAESEQLLNESYSSYIQFHLNKQPKPKVNAIKNLPVAMTISQKRFNGNSRSTVGTVSDIYASVRLLWSRIGEPFVGYSDAFSFNSPNGMCETCEGLGYIEDINLNELLDWNKSLNEGAINFPSFGPDKERGKAYRDSGLFDNDKKLKAYTKEELDLFLYQEPIKLKKPPEEWRKSAKYVGLIPRFRRIFLGDKEFNKKRYAKHLKNVVENKVCPTCNGQRLNSKILSCKIMGKNISDFTQMTVKENLAFLNKLNNSTAQFIIEPLRKQLEALDYIGLSYLTLDRVTTSLSGGEAQRLKLIRHLNSSLSDLVYIIDEPSVGLHPEDIAKINEILKSLKHKGNTVLIVEHDPDVIKEADYIIDMGPSSGAQGGEITFKGTYKKLLSSDTSTGEALRIKHHLKNEIREAKSFYHLGPVTQNNLNNVTVDIPKHVLTVLTGVAGSGKSSLVKAGFAKNDNAVFMDQKAIQGSDRSNLLTYLGVFDRVRNFFSKETGLNKSMFSYNSKGACPNCGGKGYIETELAFMGEFSQTCEVCHGKRYKPEVLNATIDGYSIADFLELTVDEGIRFFDKENEIQSKLQAISKTGLNYVTLGQPLSTLSGGEIQRVKLGQYLNDDVTDSIFIFDEPTTGLHEADIPILINCFNDLIEQNNTVILIEHNLSIMCDADWIIDVGPGPGLDGGKIQFSGYPINFVKENKTLTSKHLKLYIAND | failed
9 | MNDRARELASRLIRNFNEASLEHEVREPLYESAAARLGTGTVAHKLGASVDVVAPGKRSCPYHFHHAQEEMFVIIEGEGSLRVAGEMLPIKTGDVLFIPAGPEYPHQIINTSQAPLKYLSISTRETPEVCEYPDSGKYQAMVSANGARVFTANQRTTENVDYWDGEPLEHHHHHH | not failed
10 | MNDSTMKCIKLAAIVCIAIGLSACSEQKTTQEYILASKVYLQKLEYGAAIVELKNAVRQTPKDAEARYYLAKAYSEQGSYVNAEKELDKAEQFGLEMNLLLPDLVFIKSKLNKVEEVYALMENVESLNDEQYIVVLTYAGITALNNKELERAQDFIAQANTISETSLYSKMGAAYLLHAEDNFSKGIEIIDTVLGESPDFTEALLLKGHLLFSSEQFIQANGVYTKYRQLHPFANKVLFFEVNSLISAGEYEQADVKATELIKRFKNSPLAHQYKAQVEYQKKNYEDARSYAISAAQQGNEFIISKLIAGMSSYQLGDIEQAYGYLNQTEKYLPSSHPIKRILASIKIKLGYTTEGIVQLSALEGLTTSDAGLFQSSSIELIKAGDFENAIKLLDKASIIAPENASVAAQKGMLKLSQNDKTGIASLEHALNLDPNLKDVEFSLAIQYLDNGQEKKVRSIAKKWIASQDNQASGYLLLGIIHSNNNLSSKAEENYQKALSIEPENYTALFYLADIAEDADRILDAVDYYQKVVTILPEHKAAIQKLSRLQLKHNNTSNNVEFLSTLAAKHPKNITLALGLAQNLRLNNELKKAITLLESMSDWARSSQQYWAILGDNYLQAKSHTKAKECFKKVLALNPNNFVAHLRLIAISEVKRNYKQALTYTISSLERFEHNTRLLILKANFELLTGDLVSAKKTLRYLQEQKVSHHLINKFVGELALADKDYPSAIDNFHELYQKSPTALNVMLLARALSFNGQKAEAAQTIESYLSRMIKDHKVRLLLAELYMQFDEAKAIKHLEIINQSEQNNAVVLNNLAMLELKRARPEQALLYAEKAFELKSGIHQISDTYGAALVTVKNFDSAIIVLLNAINQGSEAETTYVNLTKAYLATGKTDKVKALLDSIKDRTFYSKVQAMR | failed
11 | MNEDGNDTPRPLGEVPEFRRIRSGPLPPHQNIPPRRRAPADQLPWLPSAAARRRRAALLLCGFLSAVVLLVSGSSWAVTGWLSDQLHRYDVFTGLLDENRPPASQGALNFLVIGSDDRSGLDSRQRSELGVGNVEGRRSDTMMLVHLNHQREHITVVGIPRDSWVRIPGHGPDKINAAYSLGGPQLAVQTVEAATGVRIDHYVEIDFTGFVEVVDTLGGITVCLPEAIHDEKAHLSLEAGTHRLQGTQALAFARTRKSPHGDLDRIDRQQQVLAALLDEALNAQILSDPARLAQFVETALGSITVDDTLDTAALIQLGTQLRSLGLDDVTFTQVPVDRIDFWTPSGEVAVTWHEQHATELFTAIAADRPIPQPQSAEDSALPSPDEVTVEVYNGTTIPGLGAQVRVELLESGFQVPESAGNWPQQDLAETLVRYSPEREDAATLLVESIPGARAEVDPGLGGRVQVIAGVNHTGVAVPAHAASPIAEQPVDVGGRETVHTRTAAENVCR | failed
12 | MNEELKKSIAASIENTRFDILQMIELGRELIDYPDEIHHGPVVSMGVPKDTLPKWDDIQILTAQLHKKPLIDDAPVDTQLVIGPRAQKPLVLDIPLLVGDMSYGALSKRAKQALSKGADLAGTAICSGEGGILGDELELNQSYMFELGSARNGLKKNSDLSQFSKDFKGKVKAFHFKGGQAAKTGTGGHLPGGKVTEEIAKARQIEVGKDAISPSTFADFHTPRDFADFADQIRDQMGGIPIGFKISANHIEDDMRFALDAGADYIILDGRGGSTGAAPGIFRDHISVPTIAALARARKFLDVAGHEKGAKNSVTLIITGGLRIPSDFIKALALGADGIALANSALQAIGCTGARICYSGDCPAGIATHAQHLVNKIDVDARARDLALFFNGSVHLMKIMTRACGHHSLREFSRDDICTWKAEISRLAGIPYAGVDPSNP | failed
13 | MNEFAQSPRSCVLGCSGLGYSVRGTPLLSDVDLSIATGETLAVVGPNGSGKSTLLKLLAGIQKPGSGAVRLGEQALAAMSRRDVARLLAVVEQQAETSDAVTVLDAVELGRTPWLSALEPWSANDDAIVRQALQDVDMLHMQKRAWHTLSGGERQRVHIARALAQRPQILLLDEPTNHLDIQHQLTILGLVRALPVTTVIALHDLNQALDCDRVAVMEKGRLVALGTPVEVLTPKRLLSTFGVVAHWLTDPFDGAKILRLRSR | failed
14 | MNEFEDLLNSVSEVNPGDVVTAEVLTVDNGQANVVIEGTGVEGVLTLRELTNDRDADINDFVKAGDTVEVLVLRQVVGKDTDTVTFLVSKKRLEARKAWDKLVGREGEVVTVKGTRAVKGGLSVEFEGLRGFIPASMIDTRFVRNTEKFVGQEFDAKIKEVDAAENRFILSRREVIEEAAKEARAEVFSKISEGAVVTGTVARLTSFGAFIDLGGVDGLVHVTELSHERNVSPKSVVSVGEEVEVKVLSIDEEAGRVSLSLKATTPGPWDGVEQKLAQGDVVEGKVKRLTDFGAFVEVLPGIDGLVHISQISHKRVENPKDVLSVGQEVTVKVLEVNAADERVSLSIKALEERPAQAEGDNKEEKRQSRPRRPKRESRRDYELPETQTGFSMADLFGDIEL | failed
15 | MNEFTAVKELSEKLLEDYKTESSFFFASPTRTILAEGEFTTVKHHEIESFPELVQAVLRNAKQAGNPNPIVVGALPFDRRKEVQLIVPEYSRISERLQLDPTNHLEINRNLTFEMTPVPDHEVYMKGVKQGIEKIKDGDLKKIVLSRSLDVKSSGKIDKQKLLRELAEHNKHGYTFAVNLPKDENENSKTLIGASPELLVSRHGMQVISNPLAGSRPRSDDPVEDKRRAEELLSSPKDLHEHAVVVEAVAAALRPYCHTLYVPEKPSVIHSEAMWHLSTEVKGELKNPNTSSLELAIALHPTPAVCGTPMEEAREAIQKIEPFDREFFTGMLGWSDLNGDGEWIVTIRCAEVQENTLRLYAGAGVVAESKPEDELAETSAKFQTMLKALGLNDSSLNEK | not failed
